Measured values reported in article PMC4703389.

Key:
[1] = target: 7D8-E345K (human); test: dynamic light scattering; 7D8 and mutants in PBS pH 7.4 up to 100 mg/mL, 25°C; linear regression of diffusion coefficient versus antibody concentration; self-association
[2] = target: 7D8-E430G (human); test: as above

| Substance | interaction parameter from regression of the diffusion coefficient versus concentration [1] [mL/g] | interaction parameter from regression of the diffusion coefficient versus concentration [2] [mL/g] |
| --- | --- | --- |
| 7D8-E345K (antibody) | -0.0174 | – |
| 7D8-E430G (antibody) | – | -0.0126 |
